Laboratory results reported in paper PMC9036128, “An anti-ANGPTL3/8 antibody decreases circulating triglycerides by binding to a LPL-inhibitory leucine zipper-like motif” (Journal of Lipid Research, 2022).

T1: human ANGPTL3 (human, UniProt Q9Y5C1 17-460)
T1 construct: angiopoietin-like protein 3 (ANGPTL3), human; 460-amino acid protein, CCD 17-210, linker, FLD 241-460; also called free ANGPTL3; ANGPTL3 alone; source: generated as previously described (22, 44)
T1 sequence (looked up): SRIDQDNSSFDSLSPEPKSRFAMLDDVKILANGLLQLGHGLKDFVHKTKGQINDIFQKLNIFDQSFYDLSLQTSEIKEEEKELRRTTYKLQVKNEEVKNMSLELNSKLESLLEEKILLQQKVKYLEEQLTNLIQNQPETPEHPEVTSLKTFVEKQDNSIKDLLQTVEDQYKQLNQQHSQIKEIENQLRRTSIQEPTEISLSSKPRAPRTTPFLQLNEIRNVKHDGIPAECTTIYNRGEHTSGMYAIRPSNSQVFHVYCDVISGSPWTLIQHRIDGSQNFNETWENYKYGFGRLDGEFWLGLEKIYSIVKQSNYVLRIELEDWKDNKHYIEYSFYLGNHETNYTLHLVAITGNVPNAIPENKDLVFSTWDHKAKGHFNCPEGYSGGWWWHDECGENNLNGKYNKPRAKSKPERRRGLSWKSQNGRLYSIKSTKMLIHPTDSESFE

T2: ANGPTL8 cotransfected with ANGPTL3 and the anti-ANGPTL3/8 antibody Fab in CHO cells (UniProt Q6UXH0 22-198)
T2 construct: angiopoietin-like protein 8 (ANGPTL8); Used only for negative stain TEM; source: CHO cells, cotransfected with ANGPTL3 and an anti-ANGPTL3/8 antibody Fab
T2 sequence (looked up): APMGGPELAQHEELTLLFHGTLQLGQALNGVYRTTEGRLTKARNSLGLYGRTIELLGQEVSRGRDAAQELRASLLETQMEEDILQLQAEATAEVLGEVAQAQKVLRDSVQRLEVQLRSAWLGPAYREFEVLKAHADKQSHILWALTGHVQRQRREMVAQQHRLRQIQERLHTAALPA

B1: human ANGPTL8 as it stands in the ANGPTL3/8 complex (HSA fusion partner removed) (natural protein, UniProt Q6UXH0 22-198, looked up)
chain: T2 sequence (looked up)
notes: angiopoietin-like protein 8 (ANGPTL8), human; 198-amino acid protein; same expression construct as HIS-HSA-ANGPTL8; also called ANGPTL8 complexed with ANGPTL3; source: part of the ANGPTL3/8 complex generated as previously described (22, 44); HSA fusion partner removed by proteolysis; not shown: His, N-terminal, cleaved; HSA, N-terminal, cleaved
B2: ANGPTL3 cotransfected with ANGPTL8 and the anti-ANGPTL3/8 antibody Fab in CHO cells (natural protein, UniProt Q9Y5C1 17-460, looked up)
chain: T1 sequence (looked up)
notes: angiopoietin-like protein 3 (ANGPTL3); Used only for negative stain TEM; source: CHO cells, cotransfected with ANGPTL8 and an anti-ANGPTL3/8 antibody Fab

Tests used:
human ANGPTL3 = target: T1, human ANGPTL3; test: HDX-MS; purified ANGPTL3/8 complex (12 uM) against ANGPTL3 alone (15 uM) and ANGPTL8 alone (15 uM); pH 7.4, 10 mM sodium phosphate, 150 mM NaCl, 15 C; 10 s, 2 min, 10 min, 60 min; triplicate; conditions: both partners purified
[1] = target: T2, ANGPTL8 cotransfected with ANGPTL3 and …; test: negative stain transmission electron microscopy; ANGPTL3, ANGPTL8 and anti-ANGPTL3/8 antibody Fab cotransfected in CHO cells; sample diluted 100-fold into TBS, uranyl formate stain; 2D class averaging in three rounds
[2] = target: the molecule itself; test: as above

Binder | binding result (human ANGPTL3) | stoichiometry N [1] | stoichiometry N [2]
B1 | binds | – | –
B2 | – | 3 ANGPTL3 per ANGPTL8 | 3
